Publication PMC4380455 (PLoS ONE, 2015)
Each block holds one molecule with its values, some of them ahead of it.

B3: TM1088B (natural protein, T. maritima, UniProt D3KFX8 1-218, looked up)
chain: MKVIIIGGETTAYYLARSMLSRKYGVVIINKDRELCEEFAKKLKATIIHGDGSHKEILRDAEVSKNDVVVILTPRDEVNLFIAQLVMKDFGVKRVVSLVNDPGNMEIFKKMGITTVLNLTTLITNTVEALIFPDEFSSIIPLEQGIEFLSVNVEEDSPVVGKKLKDLPLPRDSIIAAIVRGGVLVVPRGDTEILSGDKLYVIVSAEAKETVEETLLGR
notes: TM1088B of Thermotoga maritima MSB8 (DSM3109), full length, residues 1-218, 24.0 kDa; UniProt D3KFX8_THEMA; also called N1 and C1 domains

Assays:
[1] = biological target: T1, TM1088A (Thermotoga maritima, UniProt D3KFX7); experiment: X-ray crystal structure, […] Å; assay type: binding; conditions: AMP co-purified from E. coli host, not added; nucleotide site GXGXXG (Gly14/Gly16/Gly19), Arg17, Ala59, Arg105; crystallised pH 6.5
T1 construct: gene TM1088

[2] = biological target: the molecule itself; experiment: crystal structure; TM1088B C-terminal domain (140-218) alone, tag intact, 1.55 Å, PDB 3JXO; two chains in the asymmetric unit; 25% ethylene glycol, 293 K
[3] = biological target: B3; experiment: crystal structure; TM1088A:TM1088B octameric assembly (4 TM1088A, 4 TM1088B, 4 AMP in the asymmetric unit), 3.45 Å, PDB 3L4B; complex at 3 mg/ml with NADH added 1.1:1.0; 0.1 M magnesium chloride, 15% PEG 4000, 0.1 M HEPES pH 7.0; conditions: both partners purified
[4] = biological target: the molecule itself; experiment: crystal structure; TM1088A alone, 1.50 Å, PDB 2G1U; one molecule in the asymmetric unit, dimer formed in the crystal lattice; 40% MPD, 5% PEG-8000, 0.1 M cacodylate pH 6.5, 293 K
[5] = biological target: the molecule itself; experiment: crystal structure; TM1088A:TM1088B octameric assembly (4 TM1088A, 4 TM1088B, 4 AMP in the asymmetric unit), 3.45 Å, PDB 3L4B; complex at 3 mg/ml with NADH added 1.1:1.0; 0.1 M magnesium chloride, 15% PEG 4000, 0.1 M HEPES pH 7.0

Molecule: Nc1ncnc2c1ncn2[C@@H]1O[C@H](COP(=O)(O)O)[C@@H](O)[C@H]1O [AMP]
X-ray crystal structure, 1.50 Å [1]: AMP was co-purified with TM1088A and appears in both the high-resolution TM1088A structure

B1: TM1088B C-terminal domain (domain or fragment, T. maritima, UniProt D3KFX8 140-218, looked up)
chain: IPLEQGIEFLSVNVEEDSPVVGKKLKDLPLPRDSIIAAIVRGGVLVVPRGDTEILSGDKLYVIVSAEAKETVEETLLGR
notes: TM1088B of Thermotoga maritima MSB8 (DSM3109), C-terminal domain, residues 140-218; UniProt D3KFX8_THEMA; Crystallised with the tag intact; also called TM1088B (residues 140-218); C1 domain; source: E. coli HK100, plasmid pSpeedET-TM1088B, purified (Ni-NTA agarose)
stoichiometry N [2]: 2

binding result [3]: binds
B2: TM1088A (natural protein, T. maritima, UniProt D3KFX7 1-143, looked up)
chain: MSKKQKSKYIVIFGCGRLGSLIANLASSSGHSVVVVDKNEYAFHRLNSEFSGFTVVGDAAEFETLKECGMEKADMVFAFTNDDSTNFFISMNARYMFNVENVIARVYDPEKIKIFEENGIKTICPAVLMIEKVKEFIIGSEED
notes: TM1088A of Thermotoga maritima MSB8 (DSM3109), full length, residues 1-143, 16.0 kDa; UniProt D3KFX7_THEMA; first open reading frame of the TM1088 locus; The same construct was purified alone (2G1U) and in complex with untagged TM1088B (3L4B) from one plasmid by different purification schemes; AMP co-purified with it; Tag residues are numbered Met(-11) to 0; also called TM_1087.1; N2 domain; …
stoichiometry N [4]: 2

Molecule: B3
stoichiometry N [5]: 2
